In patent publication US10519238 (Dana-Farber, dated 2019):

Columns and labels:
[1] = target: T1, endogenous murine Gal1 (galectin-1) in lysates of the murine melanoma line B16-F10 (mouse, UniProt P16045 2-135); assay: Western blot of B16-F10 cell lysate, antibody titration
T1 construct: Endogenous protein in cell lysate, seen on Western blot; also called mouse Gal1
Description: (§1) WB analysis of cell lysates derived from human Hodgkin lymphoma line, L428 and murine melanoma line, B16-F10. Lysates were probed with 8A12 at different titration showing a specific band of Gal1 (~14 kDa), 8A12 recognizes endogenous human and murine Gal1 at similar range of titres.

[2] = target: T2, recombinant GST-tagged full length human Gal1 (F7) (human, UniProt P09382 1-135); assay: Western blot
T2 construct: Produced in E. coli; also called GST-F7; not shown: glutathione S-transferase (GST) tag
Description: Anti-Gal1 monoclonal antibodies were generated and were determined to cross-react well with both human Gal1 and mouse Gal1 (FIG. 1). […] Six recombinant human Gal1 fragments (covering the N-terminal, CBD, post-CBD sequences) named F1, F2, F3, F4, F5, F6 and the full length protein F7 in fusion with GST-tag were produced in E. coli (FIG. 2).

[3] = target: T3, recombinant human galectin-1 (R&D Systems) (human, UniProt P09382 2-135); assay: SPR (BIAcore 3000, 25 C), 8A12 captured via anti-mouse antibody, galectin as analyte, 1:1 Langmuir fit
T3 construct: Bought from R&D Systems; also called rhGal1; human galetin-1
Description: (§2) Surface Plasmon Resonance (SPR) analyses (also called Biomolecular Interaction Analysis, BIAcore) were also conducted in order to further define the biophysical properties (e.g., $kon$, $koff$, $koff/kon$ (K_D) of Gal1's interaction with the 8A12 mAb. SPR experiments were performed at 25° C. in the standard BIAcore running buffer HBS-EP on a BIAcore 3000 Instrument (BIAcore). In brief, anti-mouse antibody was first captured on the CM-5 sensor chip ((GE HealthCare). Afterwards, approximately 250 response units (RU) of anti-Gal1 mAb 8A12 were immobilized (with exception of ~350 RU for rmGal1 assay) and followed by various dilutions of recombinant galectin (human galetin-1, 2, 3, 4, 7, 8, 9 or murine galectin-1 (mGal1), from R&D Systems) to assess the binding of galectin 8A12. All data are shown after subtraction from a channel loaded with buffer alone. Data analysis to obtain the binding curves shown and equilibrium dissociation constant (KD) was performed using BIAevaluation 3.1 (BIAcore) by globally fitting the data to a simple 1:1 (Langmuir) binding model.

[4] = target: T4, recombinant murine galectin-1 (R&D Systems) (mouse, UniProt P16045 2-135); assay: as above
T4 construct: Bought from R&D Systems; also called rmGal1; mGal1
Description: as §2

[5] = target: T5, endogenous human Gal1 (galectin-1) in lysates of the human Hodgkin lymphoma line L428 (human, UniProt P09382 2-135); assay: Western blot of L428 cell lysate, antibody titration
T5 construct: Endogenous protein in cell lysate, seen as a band of ~14 kDa on Western blot; also called hGal1
Description: as §1

[6] = target: T6, recombinant human galectin-9 (R&D Systems) (human, UniProt O00182-2 2-323, limits assumed); assay: SPR (BIAcore 3000), 8A12 captured via anti-mouse antibody, galectin as analyte
T6 construct: also called Gal9
Description: as §2

[7] = target: T7, recombinant human galectin-3 (R&D Systems) (human, UniProt P17931 2-250); assay: as above
T7 construct: also called Gal3
Description: as §2

[8] = target: T8, recombinant human galectin-2 (R&D Systems) (human, UniProt P05162 1-132, limits assumed); assay: as above
T8 construct: also called Gal2
T8 sequence (looked up): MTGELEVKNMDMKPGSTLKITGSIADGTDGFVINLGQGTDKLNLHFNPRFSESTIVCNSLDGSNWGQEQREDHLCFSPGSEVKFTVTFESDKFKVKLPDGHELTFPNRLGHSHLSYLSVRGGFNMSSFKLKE
Description: as §2

[9] = target: T9, recombinant human galectin-8 (R&D Systems) (human, UniProt O00214 1-317, limits assumed); assay: as above
T9 construct: also called Gal8
T9 sequence (looked up): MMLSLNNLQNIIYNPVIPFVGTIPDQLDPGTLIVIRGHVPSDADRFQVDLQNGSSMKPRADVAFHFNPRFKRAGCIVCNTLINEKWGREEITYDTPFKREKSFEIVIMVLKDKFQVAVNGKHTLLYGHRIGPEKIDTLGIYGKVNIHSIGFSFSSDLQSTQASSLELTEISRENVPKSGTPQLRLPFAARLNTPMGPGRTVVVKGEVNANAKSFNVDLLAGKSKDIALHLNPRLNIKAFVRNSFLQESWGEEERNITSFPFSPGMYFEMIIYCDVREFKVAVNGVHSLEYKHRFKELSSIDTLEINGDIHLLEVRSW
Description: as §2

[10] = target: T10, recombinant human galectin-7 (R&D Systems) (human, UniProt P47929 2-136, limits assumed); assay: as above
T10 construct: also called Gal7
Description: as §2

[11] = target: T11, recombinant human galectin-4 (R&D Systems) (human, UniProt P56470 2-323, limits assumed); assay: as above
T11 construct: also called Gal4
T11 sequence (looked up): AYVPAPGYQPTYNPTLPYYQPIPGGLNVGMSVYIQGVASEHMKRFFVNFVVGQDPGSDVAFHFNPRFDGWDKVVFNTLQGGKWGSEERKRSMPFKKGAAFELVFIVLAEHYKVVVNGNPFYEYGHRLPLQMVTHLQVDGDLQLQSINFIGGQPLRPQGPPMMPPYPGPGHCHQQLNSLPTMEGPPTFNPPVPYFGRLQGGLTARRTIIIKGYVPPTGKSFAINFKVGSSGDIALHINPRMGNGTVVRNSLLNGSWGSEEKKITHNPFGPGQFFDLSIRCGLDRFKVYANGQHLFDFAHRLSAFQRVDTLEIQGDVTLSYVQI
Description: as §2

T10 sequence (P47929 2-136 limits assumed): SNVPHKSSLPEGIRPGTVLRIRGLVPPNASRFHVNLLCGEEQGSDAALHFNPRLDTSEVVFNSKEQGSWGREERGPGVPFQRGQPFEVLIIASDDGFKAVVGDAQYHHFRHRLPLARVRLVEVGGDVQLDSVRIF
T5 sequence (P09382 2-135 limits assumed): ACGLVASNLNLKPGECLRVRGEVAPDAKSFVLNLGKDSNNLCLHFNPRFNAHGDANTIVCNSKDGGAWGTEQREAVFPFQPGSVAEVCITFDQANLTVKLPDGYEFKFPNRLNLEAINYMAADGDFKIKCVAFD
T3 sequence (P09382 2-135 limits assumed): as above
T4 sequence (P16045 2-135 limits assumed): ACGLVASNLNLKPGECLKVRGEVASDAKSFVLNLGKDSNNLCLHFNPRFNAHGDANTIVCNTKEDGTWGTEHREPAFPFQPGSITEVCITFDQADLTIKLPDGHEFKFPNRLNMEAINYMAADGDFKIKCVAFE
T1 sequence (P16045 2-135 limits assumed): as above
T7 sequence (P17931 2-250 limits assumed): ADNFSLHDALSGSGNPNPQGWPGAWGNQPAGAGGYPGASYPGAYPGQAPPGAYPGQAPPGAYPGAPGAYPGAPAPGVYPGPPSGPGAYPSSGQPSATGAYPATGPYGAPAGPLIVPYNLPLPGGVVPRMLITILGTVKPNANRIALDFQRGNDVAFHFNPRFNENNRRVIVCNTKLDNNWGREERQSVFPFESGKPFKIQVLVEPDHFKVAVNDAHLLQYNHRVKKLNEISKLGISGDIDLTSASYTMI
T6 sequence (O00182 other isoform, or with tags, fused parts or gaps limits assumed): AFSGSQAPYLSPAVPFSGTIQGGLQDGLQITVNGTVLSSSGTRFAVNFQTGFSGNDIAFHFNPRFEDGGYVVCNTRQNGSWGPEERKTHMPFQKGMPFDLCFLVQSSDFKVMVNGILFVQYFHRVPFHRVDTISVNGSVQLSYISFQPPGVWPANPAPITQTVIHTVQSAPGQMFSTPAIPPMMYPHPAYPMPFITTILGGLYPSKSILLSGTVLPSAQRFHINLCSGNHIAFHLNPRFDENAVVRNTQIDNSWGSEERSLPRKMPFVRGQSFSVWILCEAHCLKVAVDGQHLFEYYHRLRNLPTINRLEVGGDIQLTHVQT
T2 sequence (P09382 whole entry): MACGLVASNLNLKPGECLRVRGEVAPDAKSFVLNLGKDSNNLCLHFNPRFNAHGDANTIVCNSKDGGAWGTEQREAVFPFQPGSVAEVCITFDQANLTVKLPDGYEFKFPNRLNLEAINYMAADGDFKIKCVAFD

B1: anti-Gal1 monoclonal antibody 8A12.H9.H10 (antibody, V domains shown)
VH: QAYLQQSGAELVRPGASVRMSCKASGYTFTRYNMHWVKQTPRQGLEWIGRIYPGNGDTSYNQKFKGKATLTVDKSSSTAYMQLSSLTSEDSAVYFCTVWDYWGQGTTLTVSS
VL: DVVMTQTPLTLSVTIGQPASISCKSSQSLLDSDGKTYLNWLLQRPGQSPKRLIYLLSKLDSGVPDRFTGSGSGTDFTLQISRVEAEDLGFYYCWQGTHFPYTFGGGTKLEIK
notes: Murine monoclonal antibody from a hybridoma with a kappa light chain; Signal peptide limits are stated in base pairs and were converted to residues; also called 8A12 mAb; 8A12 antibody
Q: Which results are given for B1?
A: binding result [1]: binds; binding result [2]: binds; binding result [3]: binds; binding result [4]: binds; binding result [5]: binds; binding result [6]: no binding; binding result [7]: no binding; binding result [8]: no binding; binding result [9]: no binding; binding result [10]: no binding; binding result [11]: no binding
